Tests used:
PC14PE6 lung tumors = test: orthotopic model of human lung cancer; assay type: in vivo, nude mice; conditions: intraperitoneal, 3 doses on days 6, 10 and 14
Protocol: To further assess the targeting ability of antibodies having an H8-calicheamicin conjugates, an orthotopic model for non-small cell and small cell cancer was used, essentially as described by Onn et al. (2003) Clin. Cancer Res. 9(15):5532-5539. In brief, human lung adenocarcinoma (PC14PE6) cells were injected into tail veins of nude mice, which then migrated to form tumors in lung. Tumors appeared as solid nodules in the lung parenchyma and caused hemorrhagic pleural effusions containing suspended tumor cells. Injection of control compounds and H8-calicheacmicin conjugates were administered by intraperitoneal injection to tumor-bearing mice beginning at 6 days after injection of tumor cells for a total of 3 doses given at 4-day intervals, i.e., on days 6, 10, and 14.

human 5T4 antigen [1] = biological target: T1, human 5T4 antigen (human, UniProt Q13641 32-355, limits assumed); test: BIACORE, human 5T4 antigen immobilized on a CM5 chip, antibody 12.5 nM to 200 nM
T1 construct: Isolated antigen as used in BIACORE and ELISA; also called 5T4 oncofetal antigen
T1 sequence (looked up): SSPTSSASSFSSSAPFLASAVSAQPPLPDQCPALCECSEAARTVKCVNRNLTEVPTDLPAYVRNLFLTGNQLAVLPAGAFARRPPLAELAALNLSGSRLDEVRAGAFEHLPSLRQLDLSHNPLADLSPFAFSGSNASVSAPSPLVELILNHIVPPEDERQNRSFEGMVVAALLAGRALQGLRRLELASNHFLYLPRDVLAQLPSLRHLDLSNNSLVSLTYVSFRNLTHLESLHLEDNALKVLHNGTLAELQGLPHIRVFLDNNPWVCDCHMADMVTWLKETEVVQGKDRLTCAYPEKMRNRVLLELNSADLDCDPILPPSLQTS
Protocol: BIACORE® technology utilizes changes in the refractive index at the surface layer upon binding of the antibody to the 5T4 antigen immobilized on the layer. Binding is detected by surface plasmon resonance (SPR) of laser light refracting from the surface. Analysis of the signal kinetics on rate and off rate allows the discrimination between non-specific and specific interaction. The concentration of antibody used was in the range of 12.5 nM to 200 nM.

human 5T4 antigen [2] = biological target: T1, human 5T4 antigen; test: BIACORE (plasmon resonance)
[3] = biological target: T2, human 5T4 antigen on cells (human, UniProt Q13641 32-420); test: cell-based or functional assay
T2 construct: whole, on cells; also called 5T4 on MDAMB435/5T4 cells; 5T4 on CT26/5T4 cells
T2 sequence (looked up): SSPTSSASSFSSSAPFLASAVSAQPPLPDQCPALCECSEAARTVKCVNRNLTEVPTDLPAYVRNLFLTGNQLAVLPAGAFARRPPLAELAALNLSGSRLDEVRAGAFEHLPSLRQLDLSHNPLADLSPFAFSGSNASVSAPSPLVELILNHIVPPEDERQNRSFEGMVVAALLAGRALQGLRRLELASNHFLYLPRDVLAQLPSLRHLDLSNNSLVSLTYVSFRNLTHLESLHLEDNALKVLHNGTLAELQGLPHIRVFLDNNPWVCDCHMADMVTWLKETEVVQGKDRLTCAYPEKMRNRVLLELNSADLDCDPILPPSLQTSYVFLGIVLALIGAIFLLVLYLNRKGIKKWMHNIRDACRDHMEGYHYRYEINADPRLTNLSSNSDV

human 5T4 antigen [4] = biological target: T1, human 5T4 antigen; test: BIACORE
[5] = biological target: T2, human 5T4 antigen on cells; test: FACS on MDAMB435/5T4 cells

In the case of “CMA: anti-CD33 antibody (p67.6) conjugated to calicheamicin, AcBut linker; control conjugate”, the pleural effusions (PC14PE6 lung tumors) is reported as “did not reduce the pleural effusions” and the “survival of tumor-bearing animals” value (PC14PE6 lung tumors) is reported as “slightly increased the average survival”.

B1: Humanized H8 version 2 (hVH2/hVL2) (antibody, human IgG4 S228P, kappa, V domains shown)
VH: QVQLVQSGAEVKKPGASVKVSCKASGYSFTGYYMHWVRQAPGQGLEWMGRINPNNGVTLYNQKFKDRVTMTRDTSISTAYMELSRLRSDDTAVYYCARSTMITNYVMDYWGQGTLVTVSS
VL: DIVMTQSPDSLAVSLGERATINCKASQSVSNDVAWYQQKPGQPPKLLIYYTSSRYAGVPDRFSGSGSGTDFTLTISSLQAEDVAVYYCQQDYNSPPTFGGGTKLEIKR
With B1 the Kd (human 5T4 antigen [1]) was 120 pM.

B2: Humanized H8 version 2/AcBut/CalichDMH (antibody, human IgG4 S228P, kappa, V domains shown)
VH: QVQLVQSGAEVKKPGASVKVSCKASGYSFTGYYMHWVRQAPGQGLEWMGRINPNNGVTLYNQKFKDRVTMTRDTSISTAYMELSRLRSDDTAVYYCARSTMITNYVMDYWGQGTLVTVSS
VL: DIVMTQSPDSLAVSLGERATINCKASQSVSNDVAWYQQKPGQPPKLLIYYTSSRYAGVPDRFSGSGSGTDFTLTISSLQAEDVAVYYCQQDYNSPPTFGGGTKLEIKR
modifications: CalichDMH conjugated through the AcBut linker; residues not stated
notes: Conjugate sample contained 61 ug CalichDMH per mg protein, 1% free antibody, 1.4% aggregate; also called humanized H8 calicheamicin conjugate
For B2, the Kd (human 5T4 antigen [2]) was 260 pM, the koff (human 5T4 antigen [2]) was 3.4e-05 s⁻¹ and the kon (human 5T4 antigen [2]) was 130000 M⁻¹ s⁻¹.

B3: Humanized H8 version 2/CM (antibody, human IgG4 S228P, kappa, V domains shown)
VH: QVQLVQSGAEVKKPGASVKVSCKASGYSFTGYYMHWVRQAPGQGLEWMGRINPNNGVTLYNQKFKDRVTMTRDTSISTAYMELSRLRSDDTAVYYCARSTMITNYVMDYWGQGTLVTVSS
VL: DIVMTQSPDSLAVSLGERATINCKASQSVSNDVAWYQQKPGQPPKLLIYYTSSRYAGVPDRFSGSGSGTDFTLTISSLQAEDVAVYYCQQDYNSPPTFGGGTKLEIKR
modifications: calicheamicin (CM) conjugated; linker and residues not stated
notes: also called humanized H8 version 2-calicheamicin conjugates
In the case of B3, the Kd (human 5T4 antigen [2]) is reported as 170 pM, the koff (human 5T4 antigen [2]) is reported as 2e-05 s⁻¹ and the kon (human 5T4 antigen [2]) is reported as 120000 M⁻¹ s⁻¹.

B4: Humanized H8 version 1 (hVH1/hVL1) (antibody, human IgG4 S228P, kappa, V domains shown)
VH: QVQLVQSGAEVKKPGASVKVSCKASGYSFTGYYMHWVKQSPGQGLEWIGRINPNNGVTLYNQKFKDRVTMTRDTSISTAYMELSRLRSDDTAVYYCARSTMITNYVMDYWGQGTLVTVSS
VL: DIVMTQSPDSLAVSLGERATINCKASQSVSNDVAWYQQKPGQSPKLLISYTSSRYAGVPDRFSGSGSGTDFTLTISSLQAEDVAVYFCQQDYNSPPTFGGGTKLEIKR
For B4, the Kd (human 5T4 antigen [1]) was 840 pM.

B5: Humanized H8 version 3 (hVH3/hVL2) (antibody, human IgG4 S228P, kappa, V domains shown)
VH: QVQLVQSGAEVKKPGASVKVSCKASGYSFTGYYMHWVRQAPGQGLEWMGRINPNNGVTLYNQKFKDRVTITRDTSTSTAYMELSSLRSEDTAVYYCARSTMITNYVMDYWGQGTLVTVSS
VL: DIVMTQSPDSLAVSLGERATINCKASQSVSNDVAWYQQKPGQPPKLLIYYTSSRYAGVPDRFSGSGSGTDFTLTISSLQAEDVAVYYCQQDYNSPPTFGGGTKLEIKR
B5 gave a Kd (human 5T4 antigen [1]) of 120 pM.

B6: H8-AcBut-CalichDMH (antibody, V domains shown)
VH: EVQLQQSGPDLVKPGASVKISCKASGYSFTGYYMHWVKQSHGKSLEWIGRINPNNGVTLYNQKFKDKAILTVDKSSTTAYMELRSLTSEDSAVYYCARSTMITNYVMDYWGQVTSVTVSS
VL: SIVMTQTPTFLLVSAGDRVTITCKASQSVSNDVAWYQQKPGQSPTLLISYTSSRYAGVPDRFIGSGYGTDFTFTISTLQAEDLAVYFCQQDYNSPPTFGGGTKLEIK
In the case of B6, the ED50 (ng/ml calicheamicin), MTS vital dye, MDAMB435/5T4 cells [3] is reported as 0.04 ng/mL.

B7: H8 antibody/PEG-SBA (PEG5K) (antibody, V domains shown)
VH: EVQLQQSGPDLVKPGASVKISCKASGYSFTGYYMHWVKQSHGKSLEWIGRINPNNGVTLYNQKFKDKAILTVDKSSTTAYMELRSLTSEDSAVYYCARSTMITNYVMDYWGQVTSVTVSS
VL: SIVMTQTPTFLLVSAGDRVTITCKASQSVSNDVAWYQQKPGQSPTLLISYTSSRYAGVPDRFIGSGYGTDFTFTISTLQAEDLAVYFCQQDYNSPPTFGGGTKLEIK
notes: also called H8PEG5K; H8PEG
For B7, the “fraction of binding to 5T4 lost following antibody modification” value (“fraction of binding” for short) (human 5T4 antigen [4]) was 79%.

B8: H8-AcPac-CalichDMH (antibody, V domains shown)
VH: EVQLQQSGPDLVKPGASVKISCKASGYSFTGYYMHWVKQSHGKSLEWIGRINPNNGVTLYNQKFKDKAILTVDKSSTTAYMELRSLTSEDSAVYYCARSTMITNYVMDYWGQVTSVTVSS
VL: SIVMTQTPTFLLVSAGDRVTITCKASQSVSNDVAWYQQKPGQSPTLLISYTSSRYAGVPDRFIGSGYGTDFTFTISTLQAEDLAVYFCQQDYNSPPTFGGGTKLEIK
B8 gave an ED50 (ng/ml calicheamicin), MTS vital dye, MDAMB435/5T4 cells [3] of 0.02 ng/mL.

B9: Semi-Humanized H8 (mVH/hVL1) (antibody, human IgG4 S228P, kappa, V domains shown)
VH: EVQLQQSGPDLVKPGASVKISCKASGYSFTGYYMHWVKQSHGKSLEWIGRINPNNGVTLYNQKFKDKAILTVDKSSTTAYMELRSLTSEDSAVYYCARSTMITNYVMDYWGQVTSVTVSS
VL: DIVMTQSPDSLAVSLGERATINCKASQSVSNDVAWYQQKPGQSPKLLISYTSSRYAGVPDRFSGSGSGTDFTLTISSLQAEDVAVYFCQQDYNSPPTFGGGTKLEIKR
notes: murine H8 VH + mutated human IgG4; also called semi-humanized H8 antibody; semi-human anti-5T4 antibody
B9: binds [5].

B10: H8-Amide-CalichDMH (antibody, V domains shown)
VH: EVQLQQSGPDLVKPGASVKISCKASGYSFTGYYMHWVKQSHGKSLEWIGRINPNNGVTLYNQKFKDKAILTVDKSSTTAYMELRSLTSEDSAVYYCARSTMITNYVMDYWGQVTSVTVSS
VL: SIVMTQTPTFLLVSAGDRVTITCKASQSVSNDVAWYQQKPGQSPTLLISYTSSRYAGVPDRFIGSGYGTDFTFTISTLQAEDLAVYFCQQDYNSPPTFGGGTKLEIK
B10 gave an ED50 (ng/ml calicheamicin), MTS vital dye, MDAMB435/5T4 cells [3] of 0.18 ng/mL and a fold cytotoxicity, 5T4-expressing against 5T4-negative cells [3] of 200 fold.

B11: Murine H8/CM (antibody, V domains shown)
VH: EVQLQQSGPDLVKPGASVKISCKASGYSFTGYYMHWVKQSHGKSLEWIGRINPNNGVTLYNQKFKDKAILTVDKSSTTAYMELRSLTSEDSAVYYCARSTMITNYVMDYWGQVTSVTVSS
VL: SIVMTQTPTFLLVSAGDRVTITCKASQSVSNDVAWYQQKPGQSPTLLISYTSSRYAGVPDRFIGSGYGTDFTFTISTLQAEDLAVYFCQQDYNSPPTFGGGTKLEIK
notes: also called murine H8-calicheamicin conjugates
Work on B11 yielded a Kd (human 5T4 antigen [2]) of 580 pM, a koff (human 5T4 antigen [2]) of 5.9e-05 s⁻¹ and a kon (human 5T4 antigen [2]) of 100000 M⁻¹ s⁻¹.

B12: H8 antibody/PEG-bis-maleimide (PEGmal2) (antibody, V domains shown)
VH: EVQLQQSGPDLVKPGASVKISCKASGYSFTGYYMHWVKQSHGKSLEWIGRINPNNGVTLYNQKFKDKAILTVDKSSTTAYMELRSLTSEDSAVYYCARSTMITNYVMDYWGQVTSVTVSS
VL: SIVMTQTPTFLLVSAGDRVTITCKASQSVSNDVAWYQQKPGQSPTLLISYTSSRYAGVPDRFIGSGYGTDFTFTISTLQAEDLAVYFCQQDYNSPPTFGGGTKLEIK
notes: also called H8PEGmal2; H8PEG(mal2)
B12 was tested, and the “fraction of binding” value (human 5T4 antigen [4]) was 43%.

B13: H8PEGmal2-AcBut-CalichDMH (antibody, V domains shown)
VH: EVQLQQSGPDLVKPGASVKISCKASGYSFTGYYMHWVKQSHGKSLEWIGRINPNNGVTLYNQKFKDKAILTVDKSSTTAYMELRSLTSEDSAVYYCARSTMITNYVMDYWGQVTSVTVSS
VL: SIVMTQTPTFLLVSAGDRVTITCKASQSVSNDVAWYQQKPGQSPTLLISYTSSRYAGVPDRFIGSGYGTDFTFTISTLQAEDLAVYFCQQDYNSPPTFGGGTKLEIK
B13 showed an ED50 (ng/ml calicheamicin), MTS vital dye, MDAMB435/5T4 cells [3] of 0.9 ng/mL.

B14: H8 antibody/PEG-SPA (PEG2K) (antibody, V domains shown)
VH: EVQLQQSGPDLVKPGASVKISCKASGYSFTGYYMHWVKQSHGKSLEWIGRINPNNGVTLYNQKFKDKAILTVDKSSTTAYMELRSLTSEDSAVYYCARSTMITNYVMDYWGQVTSVTVSS
VL: SIVMTQTPTFLLVSAGDRVTITCKASQSVSNDVAWYQQKPGQSPTLLISYTSSRYAGVPDRFIGSGYGTDFTFTISTLQAEDLAVYFCQQDYNSPPTFGGGTKLEIK
notes: also called H8PEG2K; H8PEG
With B14 the “fraction of binding” value (human 5T4 antigen [4]) was 69%.
